Experimental findings from US20020123056A1 are described below.

This experiment addresses PKB-sub peptide (GSK3 consensus peptide) …. Put plainly: cell-based or functional assay.

“GST-SGK2 fusion protein (human SGK2 with N-terminal Glutathione S-transferase tag, expressed in Hi5 insect cells) (from UniProt Q9HBY8 1-367) (enzyme)”: the kinase activity, 32P incorporation; GST-SGK2 from Hi5 cells treated with Calyculin A amounted to 92500 CCPM1; the kinase activity, 32P incorporation; GST-SGK2 from Hi5 cells treated with Microcysteine stood at 217 CCPM1; the kinase activity, 32P incorporation; GST-SGK2 from Hi5 cells treated with Okadaic Acid came out at 132000 CCPM1; the kinase activity, 32P incorporation; GST-SGK2 from untreated Hi5 cells came out at 979 CCPM1.
